Square brackets hold non-standard residues; d marks the D form. Peptide text beside a SMILES is read from it. * marks the point of attachment. Sta = CC(C)C[C@H](N)[C@@H](O)CC(=O)O; Isovaleryl = CC(C)CC(=O)*
Key:
Assay type in all cases: biochemical
[1] = system: native bovine PAG (preparation 7-10); assay: inhibition of native PAG peptidase activity by pepstatin A; details: parallel samples in pH 3.5, 4 and 4.5 buffers; FIG. 1
Text: FIG. 1. pH profile of the activity of native bovine PAG (preparation 7-10) against a fluorescent peptidase substrate. The PAG was isolated by pepstatin affinity chromatography and further purified by anion exchange chromatography. Identical amounts of the 7-10 preparation were mixed with a fluorescent peptidase substrate in the presence of buffers adjusted to different pH levels. The extent of fluorescent product release is indicated on the y-axis and the pH conditions of each reaction are indicated on the x-axis. Parallel samples in the pH 3.5, 4 and 4.5 buffers were treated with pepstatin A, an inhibitor of aspartic peptidases, to determine if any observed activity was from aspartic peptidases.
In each of the examples shown in FIGS. 1-3, native bovine PAGs were bound to pepstatin-agarose matrix at pH 7 or 7.5, washed and eluted by increasing osmolarity (up to 1 M NaCl), including detergent (1% Triton X-100) and increasing the pH of the elution buffer. Different PAGs bind with differing affinities to the aspartic peptidase inhibitor, pepstatin A, and it is possible to isolate different members of the family by systematically altering binding and elution conditions (e.g. Green et al., 2005; Wooding et al., 2005). The differences in activity and pH optima for each of these preparations are illustrated in FIGS. 1-3. […]

[2] = system: fluorescent cathepsin D/E substrate; assay: proteolytic activity of purified recombinant PAGs as a function of pH; details: 20 μM substrate; for pH of maximal activity: buffers of varying pH with 100 mM NaCl, FIGS. 5A, 5B
Text: FIGS. 5A and 5B. The activity of purified recombinant bovine PAG-2 and -12 (FIG. 5A), and porcine PAG-2 (FIG. 5B), against a fluorescent cathepsin D substrate as a function of pH. In FIG. 5A, triangles represent boPAG-2 activity, which is at a maximum at pH 4, while squares represent boPAG-12 activity. In both panels (A and B), each activity point is normalized by the maximum activity (relative fluorescence units) of each peptidase at its optimal pH. The percent activity is shown on the Y-axis and the pH of respective buffers on the X-axis. The error bars represent standard deviation in results obtained from duplicate reads from two separate experiments.
Recombinant boPAG-2 and -12 and recombinant porcine PAG-2 (poPAG-2) were tested for proteolytic activity by incubation with 20 μM fluorescent cathepsin D/E substrate (Peptides International, as above) in buffers of varying pH containing 100 mM NaCl. Raw fluorescence data was transformed to % relative activity, with the highest value set at 100%. Maximal activity for boPAG-2 was at pH 4, while maximal activity for boPAG-12 and poPAG-2 was at pH 3.5 (FIGS. 5A and 5B).

[3] = system: cathepsin D/E FRET substrate; assay: anti-FLAG immuno-trap protease assay of recombinant candidate bovine PAGs at pH 3-7
Procedure: FIGS. 6A and 6B. Relative protease activity, as measured by fluorescence, from an immuno-trap protease assay of several recombinant PAGs isolated with an anti-FLAG monoclonal antibody. The reactions were performed under several pH conditions simultaneously (pH 2.5 to 7.0). Identical concentrations of each recombinant PAG lysate were added to the wells.
Table 5 and FIGS. 6A and 6B show results of protease activity (fluorescence) from immuno-trap assays of several additional recombinant bovine PAGs that were expressed as fusion proteins with a FLAG epitope tag. The PAGs were immobilized in the wells of an ELISA plate by using anti-FLAG in an immuno-protease assay format (as described above) and were analyzed for their proteolytic activity against the cathepsin D/E FRET substrate at pH increments ranging from 3-7. […] This protein was used as a negative control in the assay to establish the baseline for background fluorescence.

CC(C)CC(=O)N[C@H](C(=O)N[C@H](C(=O)N[C@@H](CC(C)C)[C@@H](O)CC(=O)N[C@@H](C)C(=O)N[C@@H](CC(C)C)[C@@H](O)CC(=O)O)C(C)C)C(C)C [pepstatin A] (Isovaleryl-VV[Sta]A[Sta]-OH)
inhibition of peptidase activity [1]: inhibited

B1: poPAG-2: recombinant porcine PAG-2, FLAG-tagged (protein)
chain: DYKDDDDKLVMIPLTKVKSVRESLREKGLLKNFLKEHPYNMIQNLLSKNSSHVQKFSYQPLRNYLDMVYVGNISIGTPPQQFSVVFDTGSSDLWVPSIYCKSKACVTHRSFNPSHSSTFHDRGKSIKLEYGSGKMSGFLGQDTVRIGQLTSTGQAFGLSKEETGKAFEHAIFDGILGLAYPSIAIKGTTTVIDNLKKQDQISEPVFAFYLSSDKEEGSVVMFGGVDKKYYKGDLKWVPLTQTSYWQIALDRITCRGRVIGCPRGCQAIVDTGTSMLHGPSKAVAKIHSLIKHFEKEYVVPCNARKALPDIVFTINNVDYPVPAQAYIRKYVVPCNARKALPDIVFTINNVDYPVPAQAYIRKNANNNRCYSTFEDIMDTLNQREIWILGDVFLRLYFTVYDEGQNRIGLAQAT
pH of maximal activity [2]: 3.5 | activity at pH 2.5 ([2]; pH 2.5, 100 mM NaCl): showed activity

B2: tsh (control): recombinant equine-TSH-beta expressed and purified in the same manner as the PAGs, negative control (protein)
chain: FCIPTEYMMHVERKECAYCLTINTTICAGYCMTRDINGKLFLPKYALSQDVCTYRDFMYKTVEIPGCPDHVTPYFSYPVAVSCKCGKCNTDYSDCIHEAIKANYCTKPQKSYVVEFSI
proteolytic activity ([3]; anti-FLAG immuno-trap, pH 3-7, compared with TSH-beta control): does not have proteolytic activity | Relative fluorescent product release, pH 3.0 ([3]; pH 3.0, immobilized with anti-FLAG): 38349 | Relative fluorescent product release, pH 4.0 ([3]; pH 4.0, immobilized with anti-FLAG): 33908 | Relative fluorescent product release, pH 5.0 ([3]; pH 5.0, immobilized with anti-FLAG): 34996.5 | Relative fluorescent product release, pH 6.0 ([3]; pH 6.0, immobilized with anti-FLAG): 28222.5 | Relative fluorescent product release, pH 7.0 ([3]; pH 7.0, immobilized with anti-FLAG): 26590.5

B3: boPAG-2: recombinant bovine PAG 2 expressed in a baculovirus expression system as FLAG-tagged fusion protein (protein)
chain: DYKDDDDKIVILPLKKMKTLRETLREKNLLNNFLEEQAYRLSKNDSKITIHPLRNYLDTAYVGNITIGTPPQEFRVVFDTGSANLWVPCITCTSPACYTHKTFNPQNSSSFREVGSPITIFYGSGIIQGFLGSDTVRIGNLVSPEQSFGLSLEEYGFDSLPFDGILGLAFPAMGIEDTIPIFDNLWSHGAFSEPVFAFYLNTNKPEGSVVMFGGVDHRYYKGELNWIPVSQTSHWQISMNNISMNGTVTACSCGCEALLDTGTSMIYGPTKLVTNIHKLMNARLENSEYVVSCDAVKTLPPVIFNINGIDYPLRPQAYIIKIQNSCRSVFQGGTENSSLNTWILGDIFLRQYFSVFDRKNRRIGLAPAV
pH of maximal activity [2]: 4

From patent publication US8192946B2, “Assays for detecting pregnancy-associated glycoproteins” (The Curators of The University of Missouri, priority 2008, dated 2012)
